Where two headings read alike, the source gives them in different places.
How the values were obtained:
[1] = test system: CHO-K1 cells stably expressing rhPDE IVa; assay: cells; format: cell-based; settings: CHO-K1, 10 min
Protocol: Levels of cAMP were measured in CHO-K1 cells stably expressing PDE IVa enzyme as outlined in Materials and Methods.
CHO-K1 cells were plated at a density of 10^6 cells/175 cm^2 containing complete media with 500 μg/ml hygromycin. The flasks were maintained in an incubator at 37° C. with 5.0% CO2 for 72 hr. The media was changed and the cells were allowed to grow overnight. The cells were washed and dissociated from the plate with PBS containing 0.5 mM EDTA. Cellular cAMP content was measured by centrifuging the cell suspension at 150 g×10 min and resuspending the cells in a Hanks buffered salt solution at a density of 0.2×10^6 cells/ml. The cells were preincubated at room temperature for 15 min and then incubated with 10 μM prostaglandin I2 (PGI2) and the indicated compound for an additional 10 min. Basal cAMP levels were determined by incubating the cells in 0.1% DMSO. The incubations were terminated by the addition of HCl (0.1N final) and the cells measured for cAMP.
Determinations of whole-cell cAMP content were performed by incubating 100 μl reconstituted rabbit anti-succinyl cAMP serum with 100 μl of the whole-cell reaction or known cAMP standard and 30 pmol of 125I-cAMP TME in a […]™ well (300 μl final volume) at room temperature for 18 h. Total cpm (Bo) was determined in the absence of sample or cAMP standard. The reaction mixture was then aspirated out of the well, and individual wells were counted in a BECKMAN LS 6000SC with the window open from 10-999 for 1 min. The data were expressed as %B/Bo=[(standard or sample cpm--non-specific cpm)/(Bo cpm-non-specific cpm)]×100. Non-specific cpm were determined by incubating only the 125I-cAMP TME with assay buffer (50 mM acetate; pH 5.8) in the ScintiStrip™ well. All determinations were performed in triplicate.

[2] = Kinetic characterization of PDE IVa enzymes with cAMP as substrate; format: biochemical
Protocol: PDE IVa activity was assayed in the 100,000×g supernatant obtained from sonicated CHO-K1 cells stably expressing the enzyme. The enzyme activity was assayed in duplicate at substrate concentrations ranging from 0.2 μM to 30 μM using the Amersham SPA beads as described in Materials and Methods. Shown are the saturation kinetics for the enzyme. The inset graph is a double-reciprocal plot of the kinetic data. Average of 3 separate experiments +/- SD .
Panel A. Shown are the saturation kinetics for the enzyme.PDE IVA activity was assayed in the 100,000×g supernatant obtained from sonicated CHO-K1 cells stably expressing the enzyme. The enzyme activity was assayed in duplicate at substrate concentrations ranging from 0.2 mM to 10 mM using the Amersham SPA beads as described in Materials and Methods. Average of 3 separate experiments +/- SEM . Panel B. Double-reciprocal replot of the averaged saturation data.

CCCCC[C@H](O)/C=C/[C@@H]1[C@H]2C/C(=C/CCCC(=O)O)O[C@H]2C[C@H]1O [PGI2, prostaglandin I2]
fold induction at 10 µM ([1]; read-out: increase in basal cAMP content): 2
activation at 10 µM ([1]; PGI2 alone, read-out: increase in basal cAMP levels): ~50%

B1: PDE IVa: recombinant full-length human PDE IVa enzyme stably expressed in CHO-K1 cells (protein, UniProt P27815 1-886, looked up)
chain: MEPPTVPSERSLSLSLPGPREGQATLKPPPQHLWRQPRTPIRIQQRGYSDSAERAERERQPHRPIERADAMDTSDRPGLRTTRMSWPSSFHGTGTGSGGAGGGSSRRFEAENGPTPSPGRSPLDSQASPGLVLHAGAATSQRRESFLYRSDSDYDMSPKTMSRNSSVTSEAHAEDLIVTPFAQVLASLRSVRSNFSLLTNVPVPSNKRSPLGGPTPVCKATLSEETCQQLARETLEELDWCLEQLETMQTYRSVSEMASHKFKRMLNRELTHLSEMSRSGNQVSEYISTTFLDKQNEVEIPSPTMKEREKQQAPRPRPSQPPPPPVPHLQPMSQITGLKKLMHSNSLNNSNIPRFGVKTDQEELLAQELENLNKWGLNIFCVSDYAGGRSLTCIMYMIFQERDLLKKFRIPVDTMVTYMLTLEDHYHADVAYHNSLHAADVLQSTHVLLATPALDAVFTDLEILAALFAAAIHDVDHPGVSNQFLINTNSELALMYNDESVLENHHLAVGFKLLQEDNCDIFQNLSKRQRQSLRKMVIDMVLATDMSKHMTLLADLKTMVETKKVTSSGVLLLDNYSDRIQVLRNMVHCADLSNPTKPLELYRQWTDRIMAEFFQQGDRERERGMEISPMCDKHTASVEKSQVGFIDYIVHPLWETWADLVHPDAQEILDTLEDNRDWYYSAIRQSPSPPPEEESRGPGHPPLPDKFQFELTLEEEEEEEISMAQIPCTAQEALTAQGLSGVEEALDATIAWEASPAQESLEVMAQEASLEAELEAVYLTQQAQSTGSAPVAPDEFSSREEFVVAVSHSSPSALALQSPLLPAWRTLSVSEHAPGLPGLPSTAAEVEAQREHQAAKRACSACAGTFGEDTSALPAPGGGGSGGDPT
modifications: full-length
notes: recombinant full-length human PDE IVa enzyme stably expressed in CHO-K1 cells
Vmax ([2]; soluble PDE IVa from CHO-K1 cells): 19.5 nM cAMP hydrolyzed/mg. protein per min
Km ([2]; soluble PDE IVa from CHO-K1 cells, read-out: Km of the enzyme for cAMP as a substrate): 3.5 µM

B2: FLAG PDE IVA: purified full-length epitope FLAG PDE IVA enzyme (protein, UniProt P27815 1-886, looked up)
chain: MEPPTVPSERSLSLSLPGPREGQATLKPPPQHLWRQPRTPIRIQQRGYSDSAERAERERQPHRPIERADAMDTSDRPGLRTTRMSWPSSFHGTGTGSGGAGGGSSRRFEAENGPTPSPGRSPLDSQASPGLVLHAGAATSQRRESFLYRSDSDYDMSPKTMSRNSSVTSEAHAEDLIVTPFAQVLASLRSVRSNFSLLTNVPVPSNKRSPLGGPTPVCKATLSEETCQQLARETLEELDWCLEQLETMQTYRSVSEMASHKFKRMLNRELTHLSEMSRSGNQVSEYISTTFLDKQNEVEIPSPTMKEREKQQAPRPRPSQPPPPPVPHLQPMSQITGLKKLMHSNSLNNSNIPRFGVKTDQEELLAQELENLNKWGLNIFCVSDYAGGRSLTCIMYMIFQERDLLKKFRIPVDTMVTYMLTLEDHYHADVAYHNSLHAADVLQSTHVLLATPALDAVFTDLEILAALFAAAIHDVDHPGVSNQFLINTNSELALMYNDESVLENHHLAVGFKLLQEDNCDIFQNLSKRQRQSLRKMVIDMVLATDMSKHMTLLADLKTMVETKKVTSSGVLLLDNYSDRIQVLRNMVHCADLSNPTKPLELYRQWTDRIMAEFFQQGDRERERGMEISPMCDKHTASVEKSQVGFIDYIVHPLWETWADLVHPDAQEILDTLEDNRDWYYSAIRQSPSPPPEEESRGPGHPPLPDKFQFELTLEEEEEEEISMAQIPCTAQEALTAQGLSGVEEALDATIAWEASPAQESLEVMAQEASLEAELEAVYLTQQAQSTGSAPVAPDEFSSREEFVVAVSHSSPSALALQSPLLPAWRTLSVSEHAPGLPGLPSTAAEVEAQREHQAAKRACSACAGTFGEDTSALPAPGGGGSGGDPT
modifications: full-length FLAG epitope tag
Vmax ([2]; 150 mM KCl, 0 mg/ml HSA): 9.7 ± 0.2 μm/mg/min
Vmax ([2]; 150 mM KCl, 3 mg/ml HSA): 4.8 ± 0 μm/mg/min
Km ([2]; 150 mM KCl, 3 mg/ml HSA, read-out: Km): 4.8 ± 0.1 µM

— patent US5922557A, “System for stably expressing a high-affinity camp phosphodiesterase and use thereof” (Merck & Co., Inc., priority 1998, dated 1999)
